Seven molecules from US20130096282A1 (LOSTAM BIOPHARMACEUTICALS, published 2013) can be followed below.

Experiment [1] has as its target T1, recombinantly-expressed P. aeruginosa flagellin type B (Pseudomonas aeruginosa, UniProt P72151 1-488).
T1 construct: also called PA flagellin type B; PA flagellin B
T1 sequence: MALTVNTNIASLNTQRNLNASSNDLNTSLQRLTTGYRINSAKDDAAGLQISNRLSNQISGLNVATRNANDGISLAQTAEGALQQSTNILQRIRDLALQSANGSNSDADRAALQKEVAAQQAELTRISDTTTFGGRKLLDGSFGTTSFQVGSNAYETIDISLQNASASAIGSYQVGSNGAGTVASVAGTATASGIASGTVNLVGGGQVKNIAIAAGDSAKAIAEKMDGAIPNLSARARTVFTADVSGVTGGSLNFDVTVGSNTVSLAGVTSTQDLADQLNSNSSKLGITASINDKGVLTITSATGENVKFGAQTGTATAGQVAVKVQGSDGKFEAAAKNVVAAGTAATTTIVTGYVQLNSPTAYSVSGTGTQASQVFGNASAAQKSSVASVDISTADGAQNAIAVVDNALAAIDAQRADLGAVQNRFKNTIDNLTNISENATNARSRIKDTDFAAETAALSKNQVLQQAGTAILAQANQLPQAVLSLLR
Nature of the experiment: ELISA on plates coated with purified flagellin type B. A general note: In an ELISA, binding on a coated surface is turned into a signal by an enzyme label.

Experiment [2] has as its target T1, recombinantly-expressed P. aeruginosa …. The experiment in a line: ELISA, plates coated with recombinant flagellin type B (250 ng/well), anti-human Fc-HRP.
Experiment [3] shares this target. Nature of the experiment: SPR (ProteOn XPR36), mAb amine-coupled to GLM chip, flagellin as analyte 5-80 nM, 1:1 model.
The target of experiment [4] is T2, flagellin type A of P. aeruginosa laboratory strain PAK (Pseudomonas aeruginosa, UniProt P21184 2-394).
T2 construct: whole, on cells; Tested on whole immobilized or formaldehyde-fixed bacteria (ELISA) and in blotted bacterial lysate (western blot)
T2 sequence: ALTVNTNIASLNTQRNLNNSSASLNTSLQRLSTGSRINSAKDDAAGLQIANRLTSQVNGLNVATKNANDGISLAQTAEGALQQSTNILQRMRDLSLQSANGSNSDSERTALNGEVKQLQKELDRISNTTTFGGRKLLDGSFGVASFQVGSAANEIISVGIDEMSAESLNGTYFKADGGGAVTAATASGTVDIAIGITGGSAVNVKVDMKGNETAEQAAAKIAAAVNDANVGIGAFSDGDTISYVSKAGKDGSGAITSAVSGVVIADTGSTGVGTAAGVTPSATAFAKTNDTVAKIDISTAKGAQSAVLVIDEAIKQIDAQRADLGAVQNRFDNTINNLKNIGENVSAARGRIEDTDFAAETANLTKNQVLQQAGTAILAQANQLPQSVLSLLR
The experiment in a line: ELISA on whole immobilized bacteria, single point.

The target of experiment [5] is T1, recombinantly-expressed P. aeruginosa …. Nature of the experiment: ELISA, plates coated with recombinant flagellin type B at 5 µg/ml, anti-human Fc-HRP.
The target in experiment [6] is T3, recombinantly-expressed P. aeruginosa flagellin type A (Pseudomonas aeruginosa, UniProt P21184 2-394).
T3 construct: also called PA flagellin type A; PA flagellin A
T3 sequence: T2 sequence
Nature of the experiment: ELISA on plates coated with purified flagellin type A.

The target of experiment [7] is T3, recombinantly-expressed P. aeruginosa …. The experiment in a line: ELISA, plates coated with recombinant flagellin type A (250 ng/well), anti-human Fc-HRP.
Experiment [8] shares this target. The experiment in a line: SPR (ProteOn XPR36), mAb amine-coupled to GLM chip, flagellin as analyte 5-80 nM, 1:1 model.
The target of experiment [9] is T4, flagellin type B of P. aeruginosa laboratory strain PA01 (Pseudomonas aeruginosa, UniProt P72151 1-488).
T4 construct: whole, on cells; Tested on whole immobilized or formaldehyde-fixed bacteria (ELISA), in blotted lysate (western blot) and on live bacteria (motility)
T4 sequence: T1 sequence
The experiment in a line: immunoblot of P. aeruginosa lysates probed with LST-003, anti-human Fc peroxidase detection. (In general: A western blot detects proteins with antibodies after separation by electrophoresis.)

Experiment [10] concerns the target T4, flagellin type B of P. aeruginosa …. Nature of the experiment: immunoblot of P. aeruginosa lysates probed with LST-001, anti-mouse Fc peroxidase detection.

B1: chimeric mAb LST-004 (antibody, V domains shown)
VH: EVMLVESGGGLVKPGGSLKLSCAASGFTFSTFTMSWVRQTPEKRLECVATINGGGGNTYYPDSVKGRFTISRDNAKNNLYLQMSSLRSEDTAFYFCSRLYGIYAMDYWGQGTSVTVSS
VL: DIVMTQSHIFMSTSVGDRVSITCKASQDVGSAVAWYQQKPGQSPKVLIYWTSTRHTGVPDRFAGSGSGTEFTLTISNVQSEDLADYFCQQYSSYPLTFGAGTKLELKR
notes: also called chimeric LST-004
With B1, the EC50 (read off the curve) (commonly the concentration that produces a half-maximal response) in experiment [1] is around 1 nM. For the same molecule, the EC50 (as a rule, the concentration at which the effect is half-maximal) in experiment [2] was around 0.3 mg/L. For the same molecule, the Kd – broadly, a measure of binding affinity in units of concentration – in [3] came out at 1.3 nM.

B2: mouse monoclonal antibody LST-002 (antibody, V domains shown)
VH: B1 VH
VL: B1 VL
notes: Mouse monoclonal antibody; also called mouse LST-002; PaF4 IVE5 (ATCC HB9129)
With B2, the binding result in experiment [4] was “no binding (tested: 1:2 dilution, concentration not given)”. For the same molecule, the Kd in [3] is 0.82 nM.

B3: human monoclonal IgM antibody LST-007 (antibody, V domains shown)
VH: QVRLVQSGTEVKKPGASVRVSCKASGYTFSNYYMYWVRQAPGQGLEWMAMINPSGGSTRYAQKFQGRVTMTRDTSTSTVYMELSSLRSEDTAVYYCARADSGSYFGYWGQGTLVTVSS
VL: DIQLTQSPSFLSASVGDRVPITCRASQGISTHLAWYQQKPGKAPKLLIYAASTLQSGVPSRFSGSGSGTEFTLTISSLQPEDSATYYCQQLKSYPLTFGGGTKVEIKR
notes: Human IgM from an EBV-transformed lymphoblastoid cell line, tested as culture supernatant; also called 20H11 (ATCC CRL9300); human monoclonal IgM anti-flagella type B antibody
As to B3, the binding result in experiment [4] is listed as “no binding”.

B4: fully human recombinant mAb LST-008 (antibody, V domains shown)
VH: B3 VH
VL: B3 VL
notes: Human IgG1 made in CHO-S cells; also called recombinant human LST-008
On to B4, for which the EC50 in experiment [5] is around 0.01 mg/L. Further, the Kd in experiment [3] stood at 0.94 nM.

B5: chimeric mAb LST-003 (antibody, V domains shown)
VH: DVQLQESGPGLVKPSQSLSLPCSVTGYSITSGYYWNWIRQFPGNKLEWMGYIRYDGNNNYNPSLKNRISITHDTSKNQFFLKLNYVTTEDTATYYCARGLQFYFDSWGQGTTLTVSS
VL: DIVMSQSPSSLAVSGGEKVTMSCKSSQSLLNGSYQKHTLAWYQQKPGQSPKLLIYWASTRESGVPDRFTGSGSGTDFTLTISSVKAEDLAVYYCQQYYSYPWTFGGGTKLEIKR
notes: also called chimeric LST-003; chimeric anti-flagella type A antibody
Consider B5, for which the “EC50 (read off the curve)” value in [6] was around 0.7 nM. In addition, the EC50 in [7] is around 0.065 mg/L. The Kd in [8] was found to be 3 nM. Further, the binding result in experiment [9] was “no binding (tested: 10 µg/ml)”.

B6: mouse monoclonal antibody LST-001 (antibody, V domains shown)
VH: B5 VH
VL: B5 VL
notes: Mouse monoclonal antibody; also called mouse LST-001; FA6 IIG5 (ATCC HB9130)
Turning to B6, the Kd in experiment [8] amounted to 0.6 nM. In experiment [10], the binding result was “no binding (tested: 10 µg/ml)”.

B7: dual-specific chimeric mAb LST-010 (bispecific antibody)
heavy: not shown
light: B5 VL
notes: also called dual-specific LST-010 mAb; not shown: human light constant domain (CL)
Take B7: in [6], the “EC50 (read off the curve)” value was around 0.9 nM.
